Patent publication US20210332142A1 (Genentech, published 2021)

How the values were obtained:
mouse Tie2 ECD5 = biological target: T1, mouse Tie2 ECD5 (mouse, UniProt Q02858 23-442, limits assumed); test: ELISA: mouse Tie2 ECD5 construct immobilized, serial dilutions of IgG, anti-huFc-HRP
T1 construct: domain: ECD5 (Ig1, Ig2, EGF and Ig3 domains); also called mECD5
Description: Plates were washed and detected with anti-huFC-conjugated HRP secondary antibody using the methods above.

[1] = biological target: T2, recombinant human Tie2 extracellular domain (human, UniProt Q02763 23-748); test: SPR multi-cycle kinetics, IgG captured, kinetic analysis
T2 construct: whole entry named; also called Recombinant human Tie2 ECD; hu Tie2
Procedure: Binding to 300 nM and 1500 nM recombinant Tie2 was analyzed at 37° C. using a Single Cycle Kinetics method with a contact time of 60 seconds, a dissociation time of 120 seconds and a flow rate of 50 μl/min. Between cycles, the surface was regenerated by a 30 second injection of 3M MgCl₂ at a flow rate of 30 μl/min. Values for antibody capture levels and analyte binding levels were obtained from the Report Point Table (Biacore Evaluation Software v3.0, GE Life Sciences). […] Table 16: Experiment A; Table 17: Experiment B.
(§1) Binding to recombinant human and cyno Tie2 was analyzed using a high performance multi-cycle kinetics format with a contact time of 60 seconds, a dissociation time of 60 seconds, a flow rate of 100 μl/minute and Tie2 concentrations of 5 μM, 2.5 μM, 1.25 μM, 625 nM, 313 nM and 156 nM. Tie2 concentrations of 5 μM, 2.5 μM and 1.25 μM were injected twice. Results were analyzed using Biacore T200 Evaluation Software v3.0 (GE Life Sciences). Results from all three surface densities were analyzed together using the 1:1 Binding model with multiple Rmax and the RI parameter set to zero.

[2] = biological target: T2, recombinant human Tie2 extracellular …; test: SPR multi-cycle kinetics, IgG captured, kinetic analysis; human Tie2; kinetic analysis
Procedure: as §1

omalizumab = biological target: T3, omalizumab; test: phage ELISA
T3 construct: Used as irrelevant coated protein; also called irrelevant Fc-containing protein; not shown: the constant regions

[3] = biological target: T4, recombinant cyno Tie2 extracellular domain (cynomolgus monkey, UniProt Q02763 23-748 (human entry)); test: SPR multi-cycle kinetics, IgG captured, kinetic analysis; cyno Tie2; kinetic analysis
T4 construct: also called Recombinant cyno Tie2 ECD; cy Tie2
T4 chain: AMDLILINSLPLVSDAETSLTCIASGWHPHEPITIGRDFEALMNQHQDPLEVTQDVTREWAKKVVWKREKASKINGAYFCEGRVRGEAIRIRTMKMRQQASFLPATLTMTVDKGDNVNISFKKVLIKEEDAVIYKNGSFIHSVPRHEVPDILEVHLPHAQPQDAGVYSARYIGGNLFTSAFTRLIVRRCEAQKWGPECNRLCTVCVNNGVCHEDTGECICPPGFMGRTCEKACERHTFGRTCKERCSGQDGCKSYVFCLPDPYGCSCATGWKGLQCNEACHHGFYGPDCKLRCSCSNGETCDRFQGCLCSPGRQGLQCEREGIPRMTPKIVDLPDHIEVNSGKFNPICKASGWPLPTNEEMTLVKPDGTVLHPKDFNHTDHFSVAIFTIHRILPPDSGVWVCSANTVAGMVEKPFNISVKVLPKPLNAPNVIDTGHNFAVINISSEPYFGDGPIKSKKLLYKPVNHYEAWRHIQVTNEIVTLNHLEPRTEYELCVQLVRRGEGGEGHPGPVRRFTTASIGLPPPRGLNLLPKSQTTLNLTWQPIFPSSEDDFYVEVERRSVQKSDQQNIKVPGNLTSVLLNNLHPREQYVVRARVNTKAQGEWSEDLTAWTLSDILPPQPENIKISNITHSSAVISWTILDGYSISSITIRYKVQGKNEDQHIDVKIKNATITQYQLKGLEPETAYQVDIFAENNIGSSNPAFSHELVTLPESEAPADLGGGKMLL
Procedure: as §1

[4] = biological target: T2, recombinant human Tie2 extracellular …; test: SPR, IgG captured, 37C
Procedure: (§2) Antibodies were screened for binding to recombinant human and cyno Tie2 using a Biacore T200 instrument (GE Life Sciences). Briefly, a human antibody capture chip was generated using a Series S CM5 chip, a human antibody capture kit, and an amine coupling kit (GE Life Sciences). Antibodies diluted to 5 μg/ml were captured using a flow rate of 10 μl/minute and a contact time of 20 seconds. Binding of 300 nM and 1500 nM recombinant human and cyno Tie2 extracellular domain to the captured antibodies was analyzed at 37° C. using a single cycle kinetics method with a flow rate of 50 μl/minute, a contact time of 60 seconds and a dissociation time of 120 seconds. Between cycles, the chip was regenerated using 3M MgCl₂ injected for 30 seconds at 30 μl/minute. Data were evaluated using Biacore T200 Evaluation software (GE Life Sciences). Kinetic constants were obtained using a 1:1 binding model with the parameter RI set to zero. Selected antibodies (Table 7A-7B; ch denotes rabbit Abs; TEK denotes rat Abs) were taken forward for secondary activity screening in Fab-NDK format (see Example 8 below).

[5] = biological target: T4, recombinant cyno Tie2 extracellular …; test: SPR, IgG captured, 37C
Procedure: as §2

binding result (mouse Tie2 ECD5): binds
koff [1]: 0.45 s⁻¹
kon [1]: 180000 M⁻¹ s⁻¹
Kd [2]: 3000 nM
binding result (omalizumab): no binding
Kd [3]: 3000 nM
Kd [4]: 3000 nM
koff [4]: 0.3 s⁻¹
kon [4]: 100000 M⁻¹ s⁻¹
Kd [5]: 4 µM
koff [5]: 0.3 s⁻¹
kon [5]: 90000 M⁻¹ s⁻¹
B1: Tie2.1 (antibody, human IgG1, V domains shown)
VH: EVQLVESGGGLVQPGGSLRLSCAASGFTFSNTDISWVRQAPGKGLEWVGRISPSDGNTYYADSVKGRFTISADTSKNTAYLQMNSLRAEDTAVYYCARRTRWASWAMDYWGQGTLVTVSS
VL: DIQMTQSPSSLSASVGDRVTITCRASQDVSTAVAWYQQKPGKAPKLLIYSASFLYSGVPSRFSGSGSGTDFTLTISSLQPEDFATYYCQQSYTTPPTFGQGTKVEIKR
notes: human IgG1 in all later assays; also called Ab1; Tie2.1.M100c
